According to patent CN113683697A (SHANGHAI XIANGYAO BIOTECHNOLOGY CO LTD, dated 2021):

Columns and labels:
[1] = target: T1, B7-H3 (4Ig-B7-H3) endogenously expressed on MDA-MB-231 cells (UniProt Q5ZPR3 29-534, limits assumed); assay: FACS titration on MDA-MB-231 cells
T1 construct: whole, on cells; also called 细胞表面的B7-H3抗原
T1 sequence (looked up): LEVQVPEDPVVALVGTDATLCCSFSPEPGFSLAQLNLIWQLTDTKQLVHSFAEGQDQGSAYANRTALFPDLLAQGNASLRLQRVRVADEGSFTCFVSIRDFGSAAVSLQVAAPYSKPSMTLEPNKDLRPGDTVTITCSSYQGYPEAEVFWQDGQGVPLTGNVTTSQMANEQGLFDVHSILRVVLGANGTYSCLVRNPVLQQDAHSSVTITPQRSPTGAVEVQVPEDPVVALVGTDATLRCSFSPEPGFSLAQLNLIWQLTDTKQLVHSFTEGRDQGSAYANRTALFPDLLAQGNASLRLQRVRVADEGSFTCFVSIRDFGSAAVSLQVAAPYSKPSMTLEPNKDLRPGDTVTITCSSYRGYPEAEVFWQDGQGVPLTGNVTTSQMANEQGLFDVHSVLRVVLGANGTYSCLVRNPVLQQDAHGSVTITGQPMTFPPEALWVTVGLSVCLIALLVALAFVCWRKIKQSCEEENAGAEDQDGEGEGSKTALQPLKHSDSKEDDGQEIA

[2] = target: T1, B7-H3 (4Ig-B7-H3) endogenously …; assay: FACS, MDA-MB-231 cells
[3] = target: T2, 人B7-H3变体1(4Ig-B7-H3) on stable cells 293-h4Ig-B7-H3-copGFP (human, UniProt Q5ZPR3 29-534); assay: FACS, 293-h4Ig-B7-H3-copGFP stable cells
T2 construct: Full-length CDS cloned in pCDH-EF1-T2A-copGFP and expressed on stably transduced cells; residues left by T2A cleavage not described
T2 sequence: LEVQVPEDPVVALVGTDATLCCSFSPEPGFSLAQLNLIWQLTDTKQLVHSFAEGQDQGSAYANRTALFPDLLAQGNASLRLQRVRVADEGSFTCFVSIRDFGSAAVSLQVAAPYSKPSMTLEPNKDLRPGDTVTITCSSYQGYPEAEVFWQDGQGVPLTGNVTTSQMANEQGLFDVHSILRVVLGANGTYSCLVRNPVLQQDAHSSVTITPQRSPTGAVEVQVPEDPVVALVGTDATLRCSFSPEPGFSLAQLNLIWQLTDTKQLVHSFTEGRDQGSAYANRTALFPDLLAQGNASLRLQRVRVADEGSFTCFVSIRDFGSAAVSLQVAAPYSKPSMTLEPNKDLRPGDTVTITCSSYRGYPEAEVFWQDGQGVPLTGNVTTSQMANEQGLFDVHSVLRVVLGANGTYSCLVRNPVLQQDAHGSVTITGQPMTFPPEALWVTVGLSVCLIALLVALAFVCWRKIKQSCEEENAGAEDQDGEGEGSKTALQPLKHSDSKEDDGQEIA

B1: MGA-271 (NCT02475213) (antibody, V domains shown)
VH: EVQLVESGGGLVQPGGSLRLSCAASGFTFSSFGMHWVRQAPGKGLEWVAYISSDSSAIYYADTVKGRFTISRDNAKNSLYLQMNSLRDEDTAVYYCGRGRENIYYGSRLDYWGQGTTVTVSS
VL: DIQLTQSPSFLSASVGDRVTITCKASQNVDTNVAWYQQKPGKAPKALIYSASYRYSGVPSRFSGSGSGTDFTLTISSLQPEDFATYYCQQYNNYPFTFGQGTKLEIK
- EC50 [1]: 23.8 µg/mL

B2: scFv-27B4-H5-L3 (scFv)
scFv: QVQLVESGGGVVQPGRSLRLSCKASGYTFTTYWMHWVRQAPGKGLEWVAVIYPGDGGSYYTDSVKGRFTISRDNSKNTLYLQMNSLRAEDTAVYYCARGGNYISFPMYYWGQGTLVTVSSGGGGSGGGGSGGGGSGGGGASEIVMTQSPATLSVSPGERATLSCKASRGVSTALAWYQQKPGQAPRLLIYWASTRATGIPARFSGSGSGTEFTLTISSLQSEDFAVYYCQQHYDTPYTFGQGTKLEIK
notes: VH-linker-VL in phage display vector pXY, expressed in TG1, purified on a nickel column
- binding result [2]: binds
- binding result [3]: binds

B3: scFv-27B4-H5-L2 (scFv)
scFv: QVQLVESGGGVVQPGRSLRLSCKASGYTFTTYWMHWVRQAPGKGLEWVAVIYPGDGGSYYTDSVKGRFTISRDNSKNTLYLQMNSLRAEDTAVYYCARGGNYISFPMYYWGQGTLVTVSSGGGGSGGGGSGGGGSGGGGASVIWMTQSPSLLSASTGDRVTISCKASRGVSTALAWYQQKPGKAPELLIYWASTLQSGVPSRFSGSGSGTDFTLTISCLQSEDFATYYCQQHYDTPYTFGQGTKLEIK
notes: as for B2
- binding result [2]: binds
- binding result [3]: binds

B4: scFv-27B4-H5-L5 (scFv)
scFv: QVQLVESGGGVVQPGRSLRLSCKASGYTFTTYWMHWVRQAPGKGLEWVAVIYPGDGGSYYTDSVKGRFTISRDNSKNTLYLQMNSLRAEDTAVYYCARGGNYISFPMYYWGQGTLVTVSSGGGGSGGGGSGGGGSGGGGASDIVMTQTPLSLSVTPGQPASISCKASRGVSTALYWYLQKPGQPPQLLIYWASNRFSGVPDRFSGSGSGTDFTLKISRVEAEDVGVYYCQQHYDTPYTFGQGTKLEIK
notes: as for B2
- binding result [2]: binds
- binding result [3]: binds

B5: h27B4-H2-L2 (antibody, human IgG1, kappa, V domains shown)
VH: QVQLVQSGAEVKKPGSSVKVSCKASGYTFTTYWISWVRQAPGQGLEWMGGIYPGDGGSNYAQKFQGRVTITADESTSTAYMELSSLRSEDTAVYYCARGGNYISFPMYYWGQGTLVTVSS
VL: VIWMTQSPSLLSASTGDRVTISCKASRGVSTALAWYQQKPGKAPELLIYWASTLQSGVPSRFSGSGSGTDFTLTISCLQSEDFATYYCQQHYDTPYTFGQGTKLEIKR
notes: Whole IgG, humanized; optimized hIgG1 (L235V, F243L, R292P, Y300L, P396L) and human kappa; also called zw.M0883B9.27B4Z01
- binding result [2]: binds
- binding result [3]: binds

B6: h27B4-H2-L3 (antibody, human IgG1, kappa, V domains shown)
VH: QVQLVQSGAEVKKPGSSVKVSCKASGYTFTTYWISWVRQAPGQGLEWMGGIYPGDGGSNYAQKFQGRVTITADESTSTAYMELSSLRSEDTAVYYCARGGNYISFPMYYWGQGTLVTVSS
VL: EIVMTQSPATLSVSPGERATLSCKASRGVSTALAWYQQKPGQAPRLLIYWASTRATGIPARFSGSGSGTEFTLTISSLQSEDFAVYYCQQHYDTPYTFGQGTKLEIKR
notes: Whole IgG, humanized; optimized hIgG1 (L235V, F243L, R292P, Y300L, P396L) and human kappa; also called zw.M0883B9.27B4Z03
- binding result [2]: binds
- binding result [3]: binds

B7: h27B4-H4-L2 (antibody, human IgG1, kappa, V domains shown)
VH: EVQLVQSGAEVKKPGESLKISCKASGYTFTTYWIGWVRQMPGKGLEWMGIIYPGDGGSRYSPSFQGQVTISADKSISTAYLQWSSLKASDTAMYYCARGGNYISFPMYYWGQGTLVTVSS
VL: VIWMTQSPSLLSASTGDRVTISCKASRGVSTALAWYQQKPGKAPELLIYWASTLQSGVPSRFSGSGSGTDFTLTISCLQSEDFATYYCQQHYDTPYTFGQGTKLEIKR
notes: Whole IgG, humanized; optimized hIgG1 (L235V, F243L, R292P, Y300L, P396L) and human kappa; also called zw.M0883B9.27B4Z04
- binding result [2]: binds
- binding result [3]: binds

B8: h27B4-H4-L3 (antibody, human IgG1, kappa, V domains shown)
VH: EVQLVQSGAEVKKPGESLKISCKASGYTFTTYWIGWVRQMPGKGLEWMGIIYPGDGGSRYSPSFQGQVTISADKSISTAYLQWSSLKASDTAMYYCARGGNYISFPMYYWGQGTLVTVSS
VL: EIVMTQSPATLSVSPGERATLSCKASRGVSTALAWYQQKPGQAPRLLIYWASTRATGIPARFSGSGSGTEFTLTISSLQSEDFAVYYCQQHYDTPYTFGQGTKLEIKR
notes: Whole IgG, humanized; optimized hIgG1 (L235V, F243L, R292P, Y300L, P396L) and human kappa; also called zw.M0883B9.27B4Z02; 27B4Z02分子
- binding result [2]: binds
- binding result [3]: binds

B9: scFv-27B4-H5-L4 (scFv)
scFv: QVQLVESGGGVVQPGRSLRLSCKASGYTFTTYWMHWVRQAPGKGLEWVAVIYPGDGGSYYTDSVKGRFTISRDNSKNTLYLQMNSLRAEDTAVYYCARGGNYISFPMYYWGQGTLVTVSSGGGGSGGGGSGGGGSGGGGASEIVLTQSPDFQSVTPKEKVTITCKASRGVSTALHWYQQKPDQSPKLLIKWASQSFSGVPSRFSGSGSGTDFTLTINSLEAEDAATYYCQQHYDTPYTFGQGTKLEIK
notes: as for B2
- binding result [2]: binds
- binding result [3]: binds

B10: 嵌合抗体xw.M0883B9.27B4 (antibody, human IgG1, kappa, V domains shown)
VH: QVQLQQSGAELARPGASVKLSCKASGYTFTTYWMQWIQQRPGQGLEWIGAIYPGDGGSRYTQRFKGKATMTADPSSSTVYMQLTSLASEDSAVYFCARGGNYISFPMYYWGQGTSVTVSP
VL: DIVMTQSHKFMSTSVGDRVSITCKASRGVSTAVAWYQQKPGQSPKLLIYWASTRHTGVPDRFTGSGSGTDYTLTISSVQAEDLALYYCQQHYDTPYTFGGGTKLEIQR
notes: also called 嵌合抗体27B4; 27B4嵌合抗体
- EC50 [1]: 3.2 µg/mL
